# According to paper PMC3299984 (Structure(London, England:1993), 2012):
# B1: Schistosoma mansoni peroxiredoxin I (thioredoxin peroxidase I), reduced (enzyme)
# chain: MVLLPNRPAPEFKGQAVINGEFKEICLKDYRGKYVVLFFYPADFTFVCPTEIIAFSDQVEEFNSRNCQVIACSTDSQYSHLAWDNLDRKSGGLGHMKIPLLADRKQEISKAYGVFDEEDGNAFRGLFIIDPNGILRQITINDKPVGRSVDETLRLLDAFQFVEKHGEVCPVNWKRGQHGIKVNQK
# Target: the molecule itself
# Experiment: SEC
protein,measurement,value
B1,stoichiometry N,10
